Target: MBP-CARD9 (human) (UniProt Q9H257)
Experiment: other fluorescence titration

Sequence of MBP-CARD9 (human) (Q9H257 whole entry): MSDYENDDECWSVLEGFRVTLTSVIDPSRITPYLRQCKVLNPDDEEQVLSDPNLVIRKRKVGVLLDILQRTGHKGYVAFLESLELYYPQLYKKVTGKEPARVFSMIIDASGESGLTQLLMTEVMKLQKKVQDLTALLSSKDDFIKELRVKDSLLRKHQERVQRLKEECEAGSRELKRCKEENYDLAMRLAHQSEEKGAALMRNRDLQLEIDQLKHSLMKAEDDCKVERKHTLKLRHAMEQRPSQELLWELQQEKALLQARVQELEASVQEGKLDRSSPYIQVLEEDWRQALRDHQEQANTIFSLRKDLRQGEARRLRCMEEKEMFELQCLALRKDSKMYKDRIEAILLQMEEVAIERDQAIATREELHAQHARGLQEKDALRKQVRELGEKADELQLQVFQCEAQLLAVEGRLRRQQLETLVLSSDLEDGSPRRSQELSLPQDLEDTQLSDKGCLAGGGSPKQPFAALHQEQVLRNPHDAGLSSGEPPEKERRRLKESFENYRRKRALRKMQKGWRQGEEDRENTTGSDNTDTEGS

- Kd: 300 nM
Substance: CK2 complex (New England Bio, P6010L) (from UniProt P68400 1-391; P67870 1-215)

Source: paper doi:10.1101/2025.02.03.636288
